Data reported in US8563503B2, “Antibiotic, its nucleotide sequence, methods of construction and uses thereof” (Protein Design Lab. Ltd., priority 2011, dated 2013).
“Also recorded” adds a separate entry of the source.

Legend:
[1] = system: ATCC 25923 penicillin-sensitive Staphylococcus aureus; experiment: Bacteria growth curve (A595 nm cloudiness), penicillin-sensitive Staphylococcus aureus; format: cell-based; conditions: drug 100 ng/ml, 37° C., A595 nm per hour
Protocol: The bacterium was United States Reference Culture ATCC 25923 penicillin-sensitive Staphylococcus aureus. 2 microliter of bacteria solution (10^5 CFU/ml) was added into 10 ml culture solution containing 1% tryptone, 1% NaCl, 0.5% yeast extract, 0.5% glucose and 0.1% K2HPO4, totally prepared six groups. The first group as control was added 0.3 M NaCl+50 mM boric acid buffer fluid (i.e. blank preservative fluid for novel antibiotic, wild-type colicin Ia and protein produced by BL-21 engineering bacteria without plasmid, by the same volumes of antibiosis polypeptide liquid in the experimental group, the second group was added penicillin G sodium by 100 ng/ml, the third group was added wild-type colicin Ia by 100 ng/ml, the fourth group was added protein produced by BL-21 engineering bacteria without plasmid by 100 ng/ml, the fifth group was added recombinant protein that C-terminus of colicin Ia is fused other eight peptides by 100 ng/ml, and the sixth group was added the novel antibiotic PMC-SA1 by 100 ng/ml.
The solutions of the six groups were respectively put into 100 ml conical flask, 200 rpm, grew at 37° C. 100 μl was sampled per hour, and added onto 96 hole ELISA Plate and measured bacterium growth cloudiness by spectrophotometer (A595 nm) color comparison. The bacteria-growth curve was drawn up to compare the bacteriostasis efficacy of novel antibiosis.

[2] = system: methicillin-resistant Staphylococcus aureus (ATCC BAA-42); experiment: Transmission electron microscope observation of bactericidal effect; format: cell-based
Protocol: Transmission Electron Microscope Observations of the Bactericidal Effect of the Novel Antibiotic PMC-SA1 on Methicillin-Resistant Staphylococcus aureus (ATCC BAA-42) (Dyed by 1% Phospho-Wolframic Acid, Magnified by 25,000 Fold)
Culture solution: 1% tryptone, 1% NaCl, 0.5% yeast extract, 0.5% glucose, 0.1% K2HPO4.
Con: control group, the bacterium was added to the above culture solution and proper amount of 0.3 M NaCl+50 mM boric acid buffer solution, 200 rpm, grew at 37° C. for 2 hours, and the bacterial appearance was still regular;
PMC: the bacterium was added to the above culture solution with 10 μg/ml PMC-SA1 for 0.5 hours.

Baumanii = experiment: MIC by Agar Doubling Dilution Method, clinical isolates; format: cell-based; conditions: Baumanii clinical strains
In short: (§1)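 For Enterococcus, medium was MH supplemented with 5-10% defibrinated rabbit blood and incubation used 5% CO2 at 37° C. All strains are spotted at 10^5 CFU/ml onto agar carrying twofold drug dilutions and read after 18-24 h for absence of growth.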

[3] = system: Staphylococcus aureus (MRSA); experiment: as above; format: cell-based
In short: as §1

[4] = system: Staphylococcus aureus (MSSA); experiment: as above; format: cell-based; conditions: MSSA clinical strains
In short: as §1

Enterococcus = experiment: as above; format: cell-based, Enterococcus faecalis; conditions: Enterococcus clinical strains
In short: as §1

Enterococcus ATCC 700802 = experiment: MIC against the infecting strain (Table 2); format: cell-based, Enterococcus faecalis; conditions: ATCC700802
In short: as §1

E. coli 02-1-65 = experiment: MIC against the infecting strain (Table 2); format: cell-based; conditions: E. coli 02-1-65
In short: as §1

[5] = system: Staphylococcus aureus ATCC 29213; experiment: MIC against the infecting strain (Table 2); format: cell-based; conditions: ATCC29213
In short: as §1

[6] = system: Staphylococcus aureus MRSA BAA-42; experiment: MIC against the infecting strain (Table 2); format: cell-based; conditions: Staphylococcus aureus MRSA BAA-42
In short: as §1

[7] = system: Pseudomonas aeruginosa Standard Strain (ATCC 27853); experiment: Bacteria growth curve (A595 nm cloudiness), Pseudomonas aeruginosa; format: cell-based; conditions: drug 5 μg/ml, 37° C., A595 nm per hour
Protocol: The experimental bacterium was Pseudomonas aeruginosa Standard Strain (ATCC 27853) purchased from the Center for General Microorganism of the Administration (CGMCC). 5 microliter bacteria solution (10^6 CFU/ml level bacterium amount) was added into 10 ml MH culture solution. Seven groups are prepared. 0.3 M NaCl+50 mM boric acid buffer fluid which amount was identical to amount of antibiosis polypeptide liquid in the experimental group was added as control in the first group, 5 μg/ml wild-type colicin Ia was added in the second group, 5 μg/ml PMC-SA1 was added in the third group, and 5 μg/ml PMC-PA was added in the fourth group.
Liquid in the above groups was put into 100 ml conical flask, 200 rpm, grew at 37° C. 100 μl was sampled per hour, and added onto 96-hole Elisa Plate to measure bacteria grown cloudiness by spectrophotometer (A595 nm) color comparison. The bacteria growth curve was drawn up to compare the bacteriostasis efficacy of antibiosis polypeptide.

[8] = Immunization of mice, valence of mouse sera by indirect ELISA; format: in vivo; conditions: from valence of mouse sera
Protocol: Allosteric peptide of Colicin Ia, i.e. Ia′, PMC-SA1 obtained in embodiment 1, wild-type colicin Ia and the anti-Staphylococcus aureus peptide (ZL01128836.1) which invented by the present inventor were taken respectively to immunize mice. After admixturing with the adjuvant, the above proteins were interaperitonea injected respectively to the mice by 50 μg per mouse for one time of foundational quantity and 50 μg per mouse for one time of additional quantity totally 5 times by two weeks interval. Indirect ELISA detection method was applied to detect the valence of mouse sera (Xiao Yi, et. al., Preparation and preliminary characterization of monoclonal antibodies against Pheromonicin-and-Staphylococcus aureus, Shanxi Medical Journal, 35(1): 6-7, 32 (2006)). The valence of mouse sera which immunized by wild type colicin Ia as well as anti-Staphylococcus aureus polypeptide (ZL01128836.1) was 10^−4 to 10^−5, while the valence of mouse sera which immunized by allosteric peptide of colicin Ia and PMC-SA1 was 10^−2 to 10^−3.

B1: PMC-SA1: Staphylococcus aureus pheromone AgrD I linked to C-terminus of allosteric colicin Ia′; SEQ ID NO. 13; plasmid pBHC-SA1 (protein)
chain: SDPVRITNPAAESLGYDSDGREIMGVDIYLNPPRVDVFKGTPPAWSSFGNKTIWGGNEWVDDSPTRSDIEKRDKEITAYKNTLSAQQKENENKRTEAGKRLSAAIAAREKDENTLKTLRAGNADAADITRQEFRLLQAELREYGFRTEIAGYDALRLHTESRMLFADADSLRISPREARSLIEQAEKRQKDAQNADKKAADMLAEYERRKGILDTRLSELEKNGGAALAVLDAQQARLLGQQTRNDRAISEARNKLSSVTESLNTARNALTRAEQQLTQQKNTPDGKTIVSPEKFPGRSSTNHSIVVSGDPRFAGTIKITTSAVIDNRANLNYLLSHSGLDYKRNILNDRNPVVTEDVEGDKKIYNAEVAEWDKLRQRLLDARNKITSAESAVNSARNNLSARTNEQKHANDALNALLKEKENIRNQLSGINQKIAEEKRKQDELKATKDAINFTTEFLKSVSEKYGAKAEQLAREMAGQAKGKKIRNVEEALKTYEKYRADINKKINAKDRAAIAAALESVKLSDISSNLNRFSRGLGYAGKFTSLADWITEFGKAVRTENWRPLFVKTETIIAGNAATALVALVFSILTGSALGIIGYGLLMAVTGALIDESLVEKANKFWGIYSTCDFIM
modifications: The peptide of PMC-SA1
notes: Staphylococcus aureus pheromone AgrD I linked to C-terminus of allosteric colicin Ia′; 13; plasmid pBHC-SA1
- growth of penicillin-sensitive Staphylococcus aureus (bacteria-growth curve) [1]: restrained
- antibiosis effect relative to oxacillin (by molecular weight and concentration) ([2]; 10 μg/ml PMC-SA1 vs 500 μg/ml oxacillin): about eight thousand
- bactericidal effect, bacterial appearance under transmission electron microscope ([2]; PMC-SA1 10 μg/ml, 0.5 hours): bacterium were ruptured, the contents were leaked out; also recorded: the bacterium ruptured and leaked out its contents; also recorded: could kill methicillin-resistant Staphylococcus aureus effectively
- MIC50 (Baumanii): 32 mg/L
- MIC90 (Baumanii): >64 mg/L
- MIC50 ([3]; MRSA clinical strains): 8 to 16 mg/L
- MIC90 ([3]; MRSA clinical strains): >16 mg/L
- Scope of MIC ([3]; MRSA clinical strains): <0.25 to 64 mg/L
- in vitro antibacterial activity relative to oxacillin, standardized by same drug molecular number in unit volume ([3]; Staphylococcus aureus, MRSA): 1,240 times
- in vitro antibacterial activity relative to vancomycin, standardized by same drug molecular number in unit volume ([3]; Staphylococcus aureus, MRSA): three
- MIC50 [4]: 0.5 mg/L
- MIC90 [4]: 16 mg/L
- MIC50 (Enterococcus): >64 mg/L
- MIC90 (Enterococcus): >64 mg/L
- MIC (Enterococcus ATCC 700802): 16 µg/mL
- MIC (E. coli 02-1-65): 1 µg/mL
- MIC [5]: 0.5 µg/mL
- MIC [6]: 0.5 µg/mL
- growth of Pseudomonas aeruginosa (bacteria growth curve) [7]: can not be effectively restrained
- possibility of causing host allergic reaction relative to anti-Staphylococcus aureus polypeptide [8]: lower one to two order of magnitude
